Assay [1] deals with Bemisia tabaci B Cyclophilin B protein (Bemisia tabaci B (endogenous in whitefly adults)).
The target is the same in assay [2]. This is another data set of the same source.

This is an account of results in paper PMC5109225.

“Tomato yellow leaf curl virus coat protein (in virions) (natural protein)”: the TYLCV transmission rate to tomato test plants (one insect/plant) by whiteflies fed the Cyp inhibitor Cyclosporin A (2 μg/μl in 25% sucrose, 24 h) before virus acquisition; control fed 25% sucrose: 60% in assay [1] came out at 27%. The same substance yielded a TYLCV transmission rate to tomato test plants (one insect/plant) by whiteflies fed anti-CypB antibody (2 μg/μl in 25% sucrose, 24 h) before virus acquisition; control fed 25% sucrose: 60% in assay [2] of 17%.
